# pKd: −log10 of the molar value.
# How the values were obtained:
# [1] = target: HER2 on SK-BR-3 cells (Homo sapiens) (UniProt P04626); experiment: cell binding, NIR fluorescence; details: live cells, 5% FBS, 1 h, live adherent cells (1e4/well), 0.01-10 uM 5'-IRD800 aptamer in growth medium with 5% FBS, 37 C (or 4 C), buffer salt and pH not stated
# [2] = target: HER2 on MDA-MB-453 cells (Homo sapiens) (UniProt P04626); experiment: cell binding, NIR fluorescence; details: live cells, 5% FBS, 1 h, live adherent cells (1e4/well), 0.01-10 uM 5'-IRD800 aptamer in growth medium with 5% FBS, 37 C (or 4 C), buffer salt and pH not stated
sequence,measurement,setting,value
CCGCCCAAACACACGTAAACAGATGAGGAGCCGACACTGGG [HMAP7 (M7)],pKd,[1],6.46
same,pKd,[2],6.59
